{"source": "the DeepSol protein solubility set"}
{"test": "soluble on expression in E. coli; label from the status in PepcDB or PDB records"}
{"sequence": "MAHHHHHHMEFLVADAERMYTVNGRLQHLSYWSYKILARSFLESYQNPPLLNSNRAAQNFSKGSGYVDFCTWHRYSEFEWLAAQVELEFPGMLFPPIPSKETDGTVDKFTELLTSVKENNSTTRENPLVKKRMRHLQLTFNAIAQLHELHESPLLKAFVTLDELSWCAFREEREKKMKTSILTIFKAKGLSIIAKLRSFRESSNHDYTLDSPLDSVATRQSDLGELLNTCFAQVEYINKYCISEWRHWSDVNKLRGSIQGSPMPWTACYGGHHVQHSKHPGLEGVVREINNDAAVVEWNGQGGKLSKVPLDELNYPSSGISDPAIFALQELASQVESYFMYLSRSSGVAVLRDVEDLLWFLSSYANRCVRVIRRFREMRSEVRYLTRVVEKKASVEQFEQLERLKQILSKGTSRFMEQYNNFYRCFMRNSLMEVAHKFGRVITVIMSDDQWNERLSVAKTMLTLSLPLLPEEREEIFAEDASKRDSPPMKQVNGLEG", "soluble on expression in E. coli": "soluble"}
{"sequence": "MANDVMNRNYDFFDPMNFFNEVGNLGRDMFSGDSSMKTDVVEHDKDYVVTAELPGFKKDDIHVDYHDETLRISGKTEVNQSAKDDDGRILRQERRSQNVARSFYLPGIDLKNVKATYADGILTLTLPKQTEVDGSHEISIDLEHHHHHH", "soluble on expression in E. coli": "soluble"}
{"sequence": "MHESARHIVDLYQRHARAWDQRRRANPEAFEGEQAWLERFRRVMGQGGQVLDLGCGGGEPIARNLIEHQCAVTGVDSSATLLDHCRQRFAGQQWIHADMRSLALDQDFAGILAWNSLFHLSPDDQRAMFTVFERHAGPGCALMFTSGPEAGEAIGEFEGEALYHASLSPGEYCTLLDTHGFEVVQHISEDPDCCGFTVWLARAIDWGLEHHHHHH", "soluble on expression in E. coli": "not soluble"}
{"sequence": "MSLKRIVVANDLVGVGKVALSASIPLMASCLLEQVLLPTCLLSSHTGGGQNPVKHTTSSILDVFLTDWDNKRIKFDGIFIGYFTTTRDGQKLLEWLSRKQLPLILDPIMADNGKLYQGFSQKHIEIMIKLTQKAELVLPNISEACLLTQTAYLAKNYDEEDIRQVARKLAKLGPKQVVISGISFEEGSIGFAYYQSDSDQLTFHFGKQFPYHFYGTGDIASAIITAGFYYQLPLTQILDLVVSFLEKVLQNTLTLKRDLILGVAYESHLNYLTEGHHHHHH", "soluble on expression in E. coli": "not soluble"}
{"sequence": "SNAMKNYTLISPCFFGMEKMLAREITNLGYEIIKTEDGRITYKTDEFGIAKSNMWLRCAERVHLKIAEFEAKSFDELFENTKRINWSRYIPYGAQFPISKASSIKSKLYSTPDVQAIVKKAIVESLKKSYLEDGLLKEDKEKYPIFVFIHKDKVTISIDTTGDALHKRGYREKANKAPIRETLAAGLIYLTPWKAGRVLVDPMCGSGTILIEAAMIGINMAPGLNREFISEKWRTLDKKIWWDVRKDAFNKIDNESKFKIYGYDIDEESIDIARENAEIAGVDEYIEFNVGDATQFKSEDEFGFIITNPPYGERLEDKDSVKQLYKELGYAFRKLKNWSYYLITSYEDFEYEFGQKADKKRKLYNGMLKTNFFQYPGPKPPRNNK", "soluble on expression in E. coli": "soluble"}
{"sequence": "MASSPQLEEEAAGKLETIHASAMAKSKKKTDVVDSTNLPILELLSLKAPIFQSLLHPELPIIITGFGTGHIVCHRYDPAKLQSHLDRRRRIDTATTGKDAKKGVCPWIRLDIDLETGDLKFVDIEEQQQQKQTGKDEDLGVKTLWKTKRHKGSVRAMCFDSKGDNIFSVGSDNVLKKANTMTGKVVKKVNLSSLFNSEEKKNDKFTKLCASQTHPFILIGDESGNIHVINSENLALSNSIRSIHFGDSINDIFHFDKRSAYKFISLGQTTLAYFDVRDKDAKPNVAGNEDGKILISDDQEDEVLCGCFVDPEVADTLLCGMGEGIVTVWKPNKNDLEDQMSRIKISKDESIDCIVPTLQDDNCVWCGCSNGNIYKVNAKLGKVVEIRNHSELDEVSFVDLDFEYRVVSGGLENIKIWELSSDDVEENASVESDSDEPLSHSDEDLSDDTSSDDETTLVGLSKEELLDELDKDLKEDHQEEKESNSKSVKKRKIMKENNKKKDLYEHGIKKFDDL", "soluble on expression in E. coli": "soluble"}
{"sequence": "MAVAFYIPDQATLLREAEQKEQQILRLRESQWRFLATVVLETLRQYTSCHPKTGRKSGKYRKPSQ", "soluble on expression in E. coli": "not soluble"}
{"sequence": "MGSDKIHHHHHHMIKDTVFFAPGVSGGSNASSLSSRHRRAAIILHEIYGINAHIQRAGHEWMTRGFDIYIPALFPHHTPFRYEQQEEAYRHFSANVGFDPAVVTTLLHDLRTQYETLIVVGYSVGATLAWLSAASGLCDGVVCYYGSRIRQYLHLAPLCPTLVIVARYEPAFDPLAMRQALEKRPRVQCKMYDARHGFCDADSATFDAALSHQVMDDVTAFIRDITCANTSPDFQL", "soluble on expression in E. coli": "not soluble"}
{"sequence": "MEILYIKGDATAPIGSGVKVITHICNDIGGWGKGFVLALSKKWKMPEEAYRQWYKSQEEFTLGAVQFVNVENKLYVANMIGQHGIYKDSKGLPPIRYDAVRQCLKEVALFTIAHKASVHMPRIGCGLAGGKWELMEQIIKEELITKEIAVTVYDLMAGDPLEHHHHHH", "soluble on expression in E. coli": "soluble"}
{"sequence": "MSGHFNYIVVGRGMMGAAAARHLAETVDGVALIGPGEPADIKSHQGVFASHYDEARITRTIDGDPDWALLANRSIARYADIAARSGVEFYAPVGCLMVGPERGGANPFVDDVLRAAARLGVSTELLGDQSLKSRFPYFSFEPGCEGVFERDNAGYVNPRALVKAQAILAEKAGVTLIDDIVVSTREEDGRASVQTASGAVYTAERVLVAAGGFSITRDLLPQPVGLDVYARTVAFFEIDEGDLGQYAGMPSLIYEPHDTTKHIYLLPPVRYPDGKFYLKIGGDPDDKRVGSDPEIREWFRSGGRESVRDHLSEIVGTLVPSVDHSRVSMAACVVSKTKSGYPAIGFTASPRIAVLTGGNGTAAKSSDEIGRLGAALLRDGKIADDAFSTDFKPEFL", "soluble on expression in E. coli": "not soluble"}
{"sequence": "MSLNNDRFAKQRVADDLDEPVEEAGNLARKLGLKPYPVNYWIVDYDEMNELIAYGGFQQRYPHWRWGMQYDRQQKQGQFLGGKAFEIVNNDDPAHAFLQESNTLADQKAVITHVEAHADFFANNEWFRMFTDGSSRTTTDESGEDRRRGPDAAGMLARHGDTIQEYMQDPDIERAEVERFIDHVLCLEDNIDQHIPYSPVETVPEEFEDIEGADVTEQLDDLELSEEVKRQVFDEEWLDAQRDDDENVTFPAEPDKDVLGFLRKHGMQYDADAERATEMEDWQIELLELLRREAYYFAPQKMTKVMNEGWASYWESLMMTGEQFAGDDEFILYSDHMSKVLGSGGLNPYSLGLEIWEYVENTENRREVIERLLRVKGITWRNFDDSVDYEMVQGRESHNDVTFLDEFLTQEFVDDNDYFTYEYTHASGDYRVTSTDHEDVKKKLMLQFTNFGKPTVVVEDGNYQNRNELLLAHQYNGVMLDIGQAKEVLKRTFELWGRPVNLLTIVKEFDDHDVEVAKREGHHHHHH", "soluble on expression in E. coli": "not soluble"}
{"sequence": "MFFKQFYDNHLSQASYLVGCQRTGEAIIIDPVRDLSKYIEVADSEGLTITQATETHIHADFASGIRDVAKRLNANIYVSGEGEDALGYKNMPSKTQFVKHGDIIQVGNVKLEVLHTPGHTPESISFLLTDLGGGSSVPMGLFSGDFIFVGDIGRPDLLEKSVQIKGSTEISAKQMYESVQNIKNLPDYVQIWPGHGAGSPCGKALGAIPISTIGYEKINNWAFNEIDETKFIESLTSNQPAPPHHFAQMKQVNQFGMNLYQSYDVYPSLDNKRVAFDLRSKEAFHGGHTKGTINIPYNKNFINQIGWYLDFEKDIDLIGDKSTVEKAKHTLQLIGFDKVAGYRLPKSGISTQSVHSADMTGKEEHVLDVRNDEEWNNGHLDQAVNIPHGKLLNENIPFNKEDKIYVHCQSGVRSSIAVGILESKGFENVVNIREGYQDFPESLKLEHHHHHH", "soluble on expression in E. coli": "soluble"}
{"sequence": "MSSTAVVPSAPGPGPGPSGGPGGGTEVIQVTNVSPSASSEQMRTLFGFLGKIDELRLFPPDDSPLPVSSRVCFVKFHDPDSAVVAQHLTNTVFVDRALIVVPYAEGVIPDETKALSLLAPANAVAGLLPGGGLLPTPNPLTQIGAVPLAALGAPALDPALAALGLPGTNLNSQSLAADQLLKLMSTVDPKLNHVAAGLVSPSLKSDTSSKEIEEAMKRVREAQSLISAAIEPDKKEEKRRHSRSRSRSRRRRTPSSSRHRRSRSRSRRRSHSKSRSRRRSKSPRRRRSHSRERGRRSRSTSKARD", "soluble on expression in E. coli": "soluble"}
{"sequence": "MTEPIKEIAAKRSVEAVYTGGTVRWSANGQKLFSTCTNVVKVIDLADNTASYTIGDPEDELRITCTAVDKNRNRLLVAYNNQIIREYSIPLDPSTTKPELARTWKTIHTAPILVMEFNEEGHLLATGSADHIVKVWNLTEQQCTHTLKGPSVVSAILFGKHEKLVVGYIEGQLNLYNIMRGAPKKLVNTWKSHNSHITALLQVPDSRVVVALSRDQTMSIHETETQETLRVLPLYESIEGGAIGHNGNLFTVGEEGVVKEFVIETAKLVRKKRIASSNLDHLAYDVVSNRFLAISAEQNLIILDFENLKIARQIVGFHDEIYSCCLLGKDESHMAVASNTSEIRLYNTKTLDCQLIRGHTESVLSVVSPTWDTSLLASCSKDNSIIFWRLVTSPENDSCSTLVPVAAATGHANTVTALAISNTGRAPFLASVSTDCTIKLWGLGVSTKLKEVKIDAEKDFVEQLPKLTCSSTMVAHGKDVNCVDISESDALIATGGMDKLVKLWQVDTHKMQLGIAGTLSGHRRGVGDVKFAKNSHKLASCSGDMTIKIWNISEKSCLQTISGHSCAVFRVIFARNDSQLISADSAGIIKIWTIKTADCECSIDAHTDKIWSLSKNHNESEFVTAGTDGRIVVWKDVTEEKQKAEDNKRREAIEQDQTLTNLLSQKRYSEALVFALTLAKPFCAFKVINALMAEETPEELGSAIRRLDTRQIEILLQFTVKWNTNSRTSSVAQRVLYEIVHIVDPEELVSMPGAYGYIESFLPYTQRHMDRLDRAKQDVSLFDFVWRQMRSSV", "soluble on expression in E. coli": "not soluble"}
{"sequence": "MRTIERTTIFKRDFKREMKGQHRHLLDTDLRKVIAALANDQPLEIRYRDHALTGNWSNYRDCHIRPDLVLIYRLIGQDRLVLVRLGSHSQLDL", "soluble on expression in E. coli": "not soluble"}
{"sequence": "MERYPPIADHGLVGDLQTAALVSSQGVIDWFAAPRFDSPSIFASLLDHDGGGHFLLAPEHPEGTWRQLYYPDTGVVVTRFMSPDGVGEIIDYMPVLPGPTASDRHSLVRIVRSVRGTVRFRLVCRPRFDYLEHHHHHH", "soluble on expression in E. coli": "not soluble"}
{"sequence": "MLSPIENERSEIPSPEKLKLVEEPSDDESKFSNYDSDDWETLSDDLRLLDEEWGKSGGFDVDFSKVRHRFGRGAVHLDDDNMVSEPHETNRDLLNRLSNMAISFYNDKTGIKLELVKVLRANFHPSAAITLYITFEANDPSDGNQTKRYQAVVRYLSFDIEVCSCNPEPSSS", "soluble on expression in E. coli": "soluble"}
{"sequence": "MQPKLIILRGNSGSGKTTIANALHQCLKEQSLLISQDVVRREMLRVKDETGNLSIALLKQLVAFGYQECQYVIVEGIFQKAIYHSFFQEIIHLFEGNVQVYYFDISFEETLKRHSQRNKNQEFGVVEMKRWWLPEDYLGFPGEQRLSEQLSEKQIIRQILADIQ", "soluble on expression in E. coli": "not soluble"}
{"sequence": "MSTTAEETPTQALPTQTRTLTGWGRTAPTTAQVLSTPDVEVIARAVAQVAEQNESKPAHLQRGVIARGLGRSYGDPAQNAGGLVIDMNALNRIHRIDRDTHLVEVDAGVNLDQLMKAALPFGLWVPVLPGTRQVTIGGAIGSDIHGKNHHSAGSFGNHVVSLDLLTADGKVRTLTPKGGRNDPKGALFWATIGGMGLTGIILKATIKMTPTETAYFIADGDVTQTLDETIALHSDGSESNYEYSSAWFDAIAAPPKLGRAAISRGSLAKLDQLPAKLQKNPLAFDAPQLLTFPDVFPNGLANKFNFSMIGELWFRKSGTYRDKVQNLTQFYHPLDMFGEWNRAYGSNGFLQYQFVVPTTAVEEFKAIIRDIQKSGHYSFLNVFKLFGEGNQAPLSFPIPGWNICVDFRIKPGLNEFVTELDKRVLKFGGRLYTAKDSRTTAETFHAMYPRIDEWIATRRKYDPTNVFASDMSRRLEL", "soluble on expression in E. coli": "not soluble"}
